Results: paper PMC9753469

Target: MBP-KRAB (ZNF93 KRAB E35R), P35789
Test: SPR
Conditions: chain shown with the change; MBP-KRAB immobilized on the chip; KAP1 RBCC as mobile phase

Chain of MBP-KRAB (ZNF93 KRAB E35R), P35789 (P35789 2-71 E35R): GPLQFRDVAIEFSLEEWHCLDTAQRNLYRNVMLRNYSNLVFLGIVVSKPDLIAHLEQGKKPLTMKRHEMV

B1: m11; m9 KAP1:R311E; ZNF93 KRAB:E35R (protein)
chain: MAASAAAASAAAASAASGSPGPGEGSAGGEKRSTAPSAAASASASAAASSPAGGGAEALELLEHCGVCRERLRPEREPRLLPCLHSACSACLGPAAPAAANSSGDGGAAGDGTVVDCPVCKQQCFSKDIVENYFMRDSGSKAATDAQDANQCCTSCEDNAPATSYCVECSEPLCETCVEAHQRVKYTKDHTVRSTGPAKSRDGERTVYCNVHKHEPLVLFCESCDTLTCRDCQLNAHKDHQYQFLEDAVRNQRKLLASLVKRLGDKHATLQKSTKEVRSSIRQVSDVQKRVQVDVKMAILQIMKELNKRGEVLVNDAQKVTEGQQERLERQHWTMTKIQKHQEHILRFASWALESDNNTALLLSKKLIYFQLHRALKMIVDPVEPHGEMKFQWDLNAWTKSAEAFGKIVAERPGTNSTGPAPMAPPRAPGPLSKQGSGSSQPMEVQEGYGFGSGDDPYSSAEPHVSGVKRSRSGEGEVSGLMRKVPRVSLERLDLDLTADSQPPVFKVFPGSTTEDYNLIVIERGAAAAATGQPGTAPAGTPGAPPLAGMAIVKEEETEAAIGAPPTATEGPETKPVLMALAEGPGAEGPRLASPSGSTSSGLEVVAPEGTSAPGGGPGTLDDSATICRVCQKPGDLVMCNQCEFCFHLDCHLPALQDVPGEEWSCSLCHVLPDLKEEDGSLSLDGADSTGVVAKLSPANQRKCERVLLALFCHEPCRPLHQLATDSTFSLDQPGGTLDLTLIRARLQEKLSPPYSSPQEFAQDVGRMFKQFNKLTEDKADVQSIIGLQRFFETRMNEAFGDTKFSAVLVEPPPMSLPGAGLSSQELSGGPGDGP
B1 showed a Kd of 71.8 nM.
